Legend:
FGFR3^S249C = target: T1, FGFR3^S249C (Homo sapiens, UniProt P22607, S249C); assay: FGF-independent proliferation of FDCP-FGFR3^S249C cells in vitro (XTT); type: cell-based; conditions: two days
T1 construct: was transfected with full length FGFR1 (FDCP-FGFR1), FGFR2 (FDCP-FGFR2), FGFR3 (FDCP-FGFR3) or FGFR3^S249C mutant cDNAs; expressed in transfected cells; host or cells: FDCP-1 mouse myeloid progenitor cell line
Procedure: FIG. 8A is a graph showing viability of FDCP-FGFR3^S249C. Cells were cultured in the presence of increasing amounts of PRO-001 or a control antibody (C) for two days. Cell proliferation was determined by XTT analysis. Data are the average of duplicate cultures.
(§1) Non-transformed rat chondrocyte cell line expressing PGFR3 in an inducible manner (RCJ-FGFR3) has been described previously (Rauchenberger R. et al. J. Biol. Chem. 2003; 278:38194-205). Cells were maintained in α-Minimum Essential Media supplemented with 15% fetal calf serum (FCS), 2 mM L-Glutamine, 100 U/ml penicillin, 100 μg/ml streptomycin, 600 μg/ml G418 (Gibco BRL, Ontario, Canada), 2 μg/ml Tetracyclin (Sigma, Ontario, Canada), and 50 μg/ml HygromycinB (Gibco BRL). […]
(§2) Cell viability was assessed by 3-(4,5-dimethylthiazol)-2,5-diphenyl tetrazolium (MTT) or (2,3-bis(2-methoxy-4-nitro-5-sulphophenyl)-5-[(phenylamino) carbonyl]-2H-tetrazolium hydroxide (XTT) dye absorbance where indicated. Cells were seeded in 96-well plates at a density of 20,000 (FDCP-1 cells), 5,000 (B9 cells) or 25,000 cells (MM cell lines) per well in culture medium. Cells were incubated in the absence or presence of one of the following cytokines: 10 ng/ml FGF9 and 5 μg/ml heparin, 1% murine IL-6, 50 ng/ml IGF-1 or 50 ng/ml human IL-6 where indicated and increasing concentrations of PRO-001, control antibody (purified human Fab) or 100 nM PD173074. […]

UTMC2 cells = assay: Apoptosis of UTMC2 cells co-cultured with bone marrow stroma cells (annexin V); type: cell-based, human; conditions: 5 μg/ml, 72 hours (FIG. 5 legend)
Procedure: FIG. 5 is a graph showing apoptosis of UTMC2 cells in response to treatment with PRO-001 in the presence of BMSCs (stroma). BMSCs alone (stroma) or BMSCs together with UTMC2 cells (stroma/UTMC2) were cultured with control antibody or 5 μg/ml PRO-001 for 72 hours and apoptosis was assessed by means of a flow cytometry assay of annexin V binding and propidium iodide exclusion. Values represent means of quadruplicate cultures ±SD.
For studies of apoptosis, cells were seeded at an initial density of 2.5×10^5/ml in 6 well plates coated with BMSCs and supplemented with control (vehicle or antibody) or 5 μg/ml PRO-001 and cultured for […]. Apoptosis was determined by Annexin V staining (Boehringer Mannheim, Indianapolis, Ind.) and analyzed by flow cytometry. Annexin V is a protein that binds specifically to phosphotidyl-serine in the cell membrane. Binding occurs once the membrane has started to break down and the phospholipids are released into the extracellular media.

FGFR3 = FGFR3 (Homo sapiens, UniProt P22607); assay: Affinity and Koff to FGFR3 measured by BIAcore; type: binding
H929 cells = assay: Viability of H929 myeloma cells (MTT); type: cell-based, human; conditions: 5 μg/ml
Text: FIG. 2 is a graph showing the viability of human myeloma cell lines in the presence of PRO-001. Viability is reported as the ratio between the optical density (OD) in the presence of FGF±inhibitor and the OD in the absence of FGF.
as §1, §2

FGFR3-Y373C = target: T2, FGFR3-Y373C (Homo sapiens, UniProt P22607, Y373C); assay: FGF-stimulated growth of B9 cells expressing Y373C-FGFR3; type: cell-based
T2 construct: expressed in transfected cells; host or cells: B9 cells
Procedure: Non-transformed rat chondrocyte cell line expressing PGFR3 in an inducible manner (RCJ-FGFR3) has been described previously (Rauchenberger R. et al. J. Biol. Chem. 2003; 278:38194-205). Cells were maintained in α-Minimum Essential Media supplemented with 15% fetal calf serum (FCS), 2 mM L-Glutamine, 100 U/ml penicillin, 100 μg/ml streptomycin, 600 μg/ml G418 (Gibco BRL, Ontario, Canada), 2 μg/ml Tetracyclin (Sigma, Ontario, Canada), and 50 μg/ml HygromycinB (Gibco BRL). FGFR3 expression was induced by removal of tetracyclin and serum starvation. […]
as §2

Sequence of FGFR3 (P22607 23-806): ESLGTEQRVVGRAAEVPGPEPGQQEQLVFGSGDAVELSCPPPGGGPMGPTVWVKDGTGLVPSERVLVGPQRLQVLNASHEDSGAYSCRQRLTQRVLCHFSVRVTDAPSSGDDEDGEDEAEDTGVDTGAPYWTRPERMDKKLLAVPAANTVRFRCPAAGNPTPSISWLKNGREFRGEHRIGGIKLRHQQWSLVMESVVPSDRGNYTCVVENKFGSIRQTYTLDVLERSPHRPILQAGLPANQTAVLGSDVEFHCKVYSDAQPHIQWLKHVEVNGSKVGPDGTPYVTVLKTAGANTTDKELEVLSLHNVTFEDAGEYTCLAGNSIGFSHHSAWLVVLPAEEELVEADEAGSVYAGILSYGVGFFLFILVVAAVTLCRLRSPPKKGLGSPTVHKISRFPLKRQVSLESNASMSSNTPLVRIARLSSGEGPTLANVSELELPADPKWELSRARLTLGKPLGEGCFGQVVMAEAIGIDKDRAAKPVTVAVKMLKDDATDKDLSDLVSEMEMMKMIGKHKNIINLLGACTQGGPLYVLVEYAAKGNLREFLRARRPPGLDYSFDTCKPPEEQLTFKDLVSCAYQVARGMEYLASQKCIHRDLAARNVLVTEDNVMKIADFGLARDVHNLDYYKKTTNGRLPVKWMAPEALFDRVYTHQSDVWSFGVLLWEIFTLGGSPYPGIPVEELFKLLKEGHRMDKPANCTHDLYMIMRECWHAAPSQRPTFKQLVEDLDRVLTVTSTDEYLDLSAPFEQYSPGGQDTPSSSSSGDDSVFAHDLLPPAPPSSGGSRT
T1 sequence (P22607 23-806 S249C): as the sequence (P22607 23-806) above, with S227C counted along it
T2 sequence (P22607 23-806 Y373C): as the sequence (P22607 23-806) above, with Y351C counted along it

B1: PRO-001: human anti-FGFR3 Fab from HuCAL library; VH-CDR3 SEQ ID NO:1, VL-CDR3 SEQ ID NO:10; VH SEQ ID NO:19, VL SEQ ID NO:28 (antibody, V domains shown)
VH: QVQLQQSGPGLVKPSQTLSLTCAISGDSVSSNSAAWNWIRQSPGRGLEWLGRTYYRSKWYNDYAVSVKSRITINPDTSKNQFSLQLNSVTPEDTAVYYCARSYYPDFDYWGQGTLVTVSS
VL: DIELTQPPSVSVAPGQTARISCSGDALGDKYASWYQQKPGQAPVLVIYDDSDRPSGIPERFSGSNSGNTATLTISGTQAEDEADYYCQSYDGPDLWVFGGGTKLTVLGQ
- FGF-independent proliferation of FDCP-FGFR3^S249C in vitro (FGFR3^S249C): efficiently blocked
- Apoptosis of UTMC2 cells co cultured with BMSC (UTMC2 cells): induces a high level of apoptosis
- Kd (FGFR3): 1.5 nM
- Cell growth of H929 cells in the presence of FGF (H929 cells): resistant
- IC50, FGF-stimulated growth of cells expressing Y373C-FGFR3 (FGFR3-Y373C): approximately 3 μg/ml

Source: patent US20090175866A1, “TREATMENT OF B-CELL MALIGNANCIES” (priority 2004, published 2009)
